T1: human MIC-1 receptor (hGFRAL, GDNF family receptor alpha like) (human, UniProt Q6UXV0 19-394)
T1 sequence (looked up): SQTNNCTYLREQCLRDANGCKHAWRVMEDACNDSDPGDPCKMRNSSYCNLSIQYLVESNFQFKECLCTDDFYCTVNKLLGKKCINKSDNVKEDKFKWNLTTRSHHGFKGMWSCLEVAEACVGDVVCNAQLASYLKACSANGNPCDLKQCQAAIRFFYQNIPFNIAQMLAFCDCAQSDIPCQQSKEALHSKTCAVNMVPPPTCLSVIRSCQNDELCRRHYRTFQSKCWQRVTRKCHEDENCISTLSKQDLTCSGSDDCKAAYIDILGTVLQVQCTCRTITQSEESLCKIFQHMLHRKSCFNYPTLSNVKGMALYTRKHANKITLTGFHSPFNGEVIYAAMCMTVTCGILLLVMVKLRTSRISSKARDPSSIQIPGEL


Target: T1, human MIC-1 receptor (hGFRAL, GDNF …)
Test: cell-based or functional assay

| Binder | pERK EC50 (nM) | pERK Emax (%) |
| --- | --- | --- |
| (GEPS)5-MIC-1 (SEQ ID NO: 1) (ligand) GEPSGEPSGEPSGEPSGEPSARNGDHCPLGPGRCCRLHTVRASLEDLGWADWVLSPREVQVTMCIGACPSQFRAANMHAQIKTSLHRLKPDTVPAPCCVPASYNPMVLIQKTDTGVSLQTYDDLLAKDCHCI | 0.5 nM | 100% |
| AASPAGSPTSTEEGTSESATPESGPG-MIC-1-Δ1-3 (ligand) AASPAGSPTSTEEGTSESATPESGPGGDHCPLGPGRCCRLHTVRASLEDLGWADWVLSPREVQVTMCIGACPSQFRAANMHAQIKTSLHRLKPDTVPAPCCVPASYNPMVLIQKTDTGVSLQTYDDLLAKDCHCI | 0.7 nM | 100% |
| MIC-1 (SEQ ID NO: 1) (ligand) ARNGDHCPLGPGRCCRLHTVRASLEDLGWADWVLSPREVQVTMCIGACPSQFRAANMHAQIKTSLHRLKPDTVPAPCCVPASYNPMVLIQKTDTGVSLQTYDDLLAKDCHCI | 0.3 nM | 100% |
| MIC-1(R2A, N3E, K69E) (ligand) AAEGDHCPLGPGRCCRLHTVRASLEDLGWADWVLSPREVQVTMCIGACPSQFRAANMHAQIKTSLHRLEPDTVPAPCCVPASYNPMVLIQKTDTGVSLQTYDDLLAKDCHCI | 0.5 nM | 100% |
| MIC-1(R2A, N3E, L68E) (ligand) AAEGDHCPLGPGRCCRLHTVRASLEDLGWADWVLSPREVQVTMCIGACPSQFRAANMHAQIKTSLHREKPDTVPAPCCVPASYNPMVLIQKTDTGVSLQTYDDLLAKDCHCI | 0.8 nM | 100% |
| MIC-1(R2A, N3E, K107E) (ligand) AAEGDHCPLGPGRCCRLHTVRASLEDLGWADWVLSPREVQVTMCIGACPSQFRAANMHAQIKTSLHRLKPDTVPAPCCVPASYNPMVLIQKTDTGVSLQTYDDLLAEDCHCI | 0.3 nM | 100% |
| MIC-1(R2A, N3E, P11E) (ligand) AAEGDHCPLGEGRCCRLHTVRASLEDLGWADWVLSPREVQVTMCIGACPSQFRAANMHAQIKTSLHRLKPDTVPAPCCVPASYNPMVLIQKTDTGVSLQTYDDLLAKDCHCI | 0.4 nM | 100% |
| MIC-1(R2A, N3E, R67E) (ligand) AAEGDHCPLGPGRCCRLHTVRASLEDLGWADWVLSPREVQVTMCIGACPSQFRAANMHAQIKTSLHELKPDTVPAPCCVPASYNPMVLIQKTDTGVSLQTYDDLLAKDCHCI | 0.5 nM | 100% |
| MIC-1(R2A, N3E, A47E) (ligand) AAEGDHCPLGPGRCCRLHTVRASLEDLGWADWVLSPREVQVTMCIGECPSQFRAANMHAQIKTSLHRLKPDTVPAPCCVPASYNPMVLIQKTDTGVSLQTYDDLLAKDCHCI | 0.4 nM | 100% |
| AES-MIC-1-Δ1-3 (ligand) AESGDHCPLGPGRCCRLHTVRASLEDLGWADWVLSPREVQVTMCIGACPSQFRAANMHAQIKTSLHRLKPDTVPAPCCVPASYNPMVLIQKTDTGVSLQTYDDLLAKDCHCI | 0.3 nM | 100% |
| MIC-1(R2A, N3E, H18E) (ligand) AAEGDHCPLGPGRCCRLETVRASLEDLGWADWVLSPREVQVTMCIGACPSQFRAANMHAQIKTSLHRLKPDTVPAPCCVPASYNPMVLIQKTDTGVSLQTYDDLLAKDCHCI | 0.5 nM | 100% |
| MIC-1(R2A, N3E, R21E) (ligand) AAEGDHCPLGPGRCCRLHTVEASLEDLGWADWVLSPREVQVTMCIGACPSQFRAANMHAQIKTSLHRLKPDTVPAPCCVPASYNPMVLIQKTDTGVSLQTYDDLLAKDCHCI | 0.6 nM | 100% |
| MIC-1(R2A, N3E, M57E) (ligand) AAEGDHCPLGPGRCCRLHTVRASLEDLGWADWVLSPREVQVTMCIGACPSQFRAANEHAQIKTSLHRLKPDTVPAPCCVPASYNPMVLIQKTDTGVSLQTYDDLLAKDCHCI | 0.3 nM | 70% |
| MIC-1(R2A, N3E, L105E) (ligand) AAEGDHCPLGPGRCCRLHTVRASLEDLGWADWVLSPREVQVTMCIGACPSQFRAANMHAQIKTSLHRLKPDTVPAPCCVPASYNPMVLIQKTDTGVSLQTYDDLEAKDCHCI | 0.7 nM | 100% |
| MIC-1(R2A, N3E) (ligand) AAEGDHCPLGPGRCCRLHTVRASLEDLGWADWVLSPREVQVTMCIGACPSQFRAANMHAQIKTSLHRLKPDTVPAPCCVPASYNPMVLIQKTDTGVSLQTYDDLLAKDCHCI | 0.3 nM | 100% |
| MIC-1(R2A, N3E, A30E) (ligand) AAEGDHCPLGPGRCCRLHTVRASLEDLGWEDWVLSPREVQVTMCIGACPSQFRAANMHAQIKTSLHRLKPDTVPAPCCVPASYNPMVLIQKTDTGVSLQTYDDLLAKDCHCI | 0.7 nM | 100% |
| MIC-1(R2A, N3E, A54E) (ligand) AAEGDHCPLGPGRCCRLHTVRASLEDLGWADWVLSPREVQVTMCIGACPSQFREANMHAQIKTSLHRLKPDTVPAPCCVPASYNPMVLIQKTDTGVSLQTYDDLLAKDCHCI | 0.3 nM | 100% |
| MIC-1(R2A, N3E, R53E) (ligand) AAEGDHCPLGPGRCCRLHTVRASLEDLGWADWVLSPREVQVTMCIGACPSQFEAANMHAQIKTSLHRLKPDTVPAPCCVPASYNPMVLIQKTDTGVSLQTYDDLLAKDCHCI | 0.4 nM | 100% |
| MIC-1(R2A, N3E, P85E) (ligand) AAEGDHCPLGPGRCCRLHTVRASLEDLGWADWVLSPREVQVTMCIGACPSQFRAANMHAQIKTSLHRLKPDTVPAPCCVPASYNEMVLIQKTDTGVSLQTYDDLLAKDCHCI | 0.6 nM | 100% |
| TSESATPESGPGTSESATPESGPG-MIC-1(R2A, N3E) (ligand) TSESATPESGPGTSESATPESGPGAAEGDHCPLGPGRCCRLHTVRASLEDLGWADWVLSPREVQVTMCIGACPSQFRAANMHAQIKTSLHRLKPDTVPAPCCVPASYNPMVLIQKTDTGVSLQTYDDLLAKDCHCI | 0.3 nM | 100% |
| SPAGSPTSTEEGTSESATPESGPG-MIC-1 (SEQ ID NO: 1) (ligand) SPAGSPTSTEEGTSESATPESGPGARNGDHCPLGPGRCCRLHTVRASLEDLGWADWVLSPREVQVTMCIGACPSQFRAANMHAQIKTSLHRLKPDTVPAPCCVPASYNPMVLIQKTDTGVSLQTYDDLLAKDCHCI | 0.4 nM | 100% |
| (AEE)5AES-MIC-1-Δ1-3 (ligand) AEEAEEAEEAEEAEEAESGDHCPLGPGRCCRLHTVRASLEDLGWADWVLSPREVQVTMCIGACPSQFRAANMHAQIKTSLHRLKPDTVPAPCCVPASYNPMVLIQKTDTGVSLQTYDDLLAKDCHCI | 0.5 nM | 100% |
| (AEE)2AES-MIC-1-Δ1-3 (ligand) AEEAEEAESGDHCPLGPGRCCRLHTVRASLEDLGWADWVLSPREVQVTMCIGACPSQFRAANMHAQIKTSLHRLKPDTVPAPCCVPASYNPMVLIQKTDTGVSLQTYDDLLAKDCHCI | 0.4 nM | 100% |
| (AEE)3AES-MIC-1-Δ1-3 (ligand) AEEAEEAEEAESGDHCPLGPGRCCRLHTVRASLEDLGWADWVLSPREVQVTMCIGACPSQFRAANMHAQIKTSLHRLKPDTVPAPCCVPASYNPMVLIQKTDTGVSLQTYDDLLAKDCHCI | 0.5 nM | 100% |
| AASPAGSPTSTEEGTSESATPESGPG-MIC-1 (SEQ ID NO: 1) (ligand) AASPAGSPTSTEEGTSESATPESGPGARNGDHCPLGPGRCCRLHTVRASLEDLGWADWVLSPREVQVTMCIGACPSQFRAANMHAQIKTSLHRLKPDTVPAPCCVPASYNPMVLIQKTDTGVSLQTYDDLLAKDCHCI | 0.4 nM | 100% |
| (AEE)6AES-MIC-1(SEQ ID NO: 1) (ligand) AEEAEEAEEAEEAEEAEEAESGDHCPLGPGRCCRLHTVRASLEDLGWADWVLSPREVQVTMCIGACPSQFRAANMHAQIKTSLHRLKPDTVPAPCCVPASYNPMVLIQKTDTGVSLQTYDDLLAKDCHCI | 0.8 nM | 100% |
| AEEAES-MIC-1-Δ1-3 (ligand) AEEAESGDHCPLGPGRCCRLHTVRASLEDLGWADWVLSPREVQVTMCIGACPSQFRAANMHAQIKTSLHRLKPDTVPAPCCVPASYNPMVLIQKTDTGVSLQTYDDLLAKDCHCI | 0.3 nM | 100% |

Reference: patent US12006344 (Novo Nordisk, dated 2024)
